EC50 and percent inhibition data for 2 molecules are collected here from patent US20140024806A1.

The term EC50 denotes the midpoint of the concentration-response curve.

Square brackets hold non-standard residues; d marks the D form. Ends that are not written are not given here. Hyp = O=C(O)[C@@H]1C[C@@H](O)CN1

In test [1] the target is growth hormone receptor (GHR) on NIH 3T3-L1 cells (Mus musculus (Mouse)) (UniProt P16882). The experiment in a line: radioreceptor competition assay, [125I]-hGH on GHR-expressing NIH 3T3-L1 cell monolayers.
Test [2] concerns the target anti-hGH-(SO)10 antibodies (1:10,000 serum dilution). The experiment in a line: competition ELISA, hGH-(SO)10-coated plates, serum 1:10,000, 100 ug/ml (SO)10 as competitive inhibitor. (An ELISA detects its analyte on a solid surface through an enzyme-linked reagent.)

UniProt P16882, sequence (P16882 25-650 limits assumed, form in doubt): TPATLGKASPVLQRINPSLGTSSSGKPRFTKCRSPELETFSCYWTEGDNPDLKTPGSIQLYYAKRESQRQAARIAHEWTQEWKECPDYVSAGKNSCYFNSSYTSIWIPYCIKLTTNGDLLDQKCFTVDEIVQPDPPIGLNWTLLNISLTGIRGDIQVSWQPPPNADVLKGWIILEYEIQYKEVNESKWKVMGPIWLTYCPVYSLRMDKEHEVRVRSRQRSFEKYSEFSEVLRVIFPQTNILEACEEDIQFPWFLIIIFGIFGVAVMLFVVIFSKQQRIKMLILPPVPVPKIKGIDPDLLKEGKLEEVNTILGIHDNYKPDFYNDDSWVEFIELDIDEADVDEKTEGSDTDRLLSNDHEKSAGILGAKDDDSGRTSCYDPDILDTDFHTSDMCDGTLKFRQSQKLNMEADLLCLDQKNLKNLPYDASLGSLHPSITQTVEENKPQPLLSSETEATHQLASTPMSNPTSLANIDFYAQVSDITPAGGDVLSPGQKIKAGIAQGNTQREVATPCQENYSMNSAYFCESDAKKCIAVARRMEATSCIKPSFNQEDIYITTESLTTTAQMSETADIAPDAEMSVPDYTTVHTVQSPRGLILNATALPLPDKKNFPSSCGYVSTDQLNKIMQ

For “hGH-(SO)10-EGFP fusion glycoprotein (human growth hormone, (Ser-Hyp)10, enhanced green fluorescent protein) (ligand)”, the EC50 in test [1] turned out to be 10 nM.

B1: purified (SO)10 glycomodule (peptide)
peptide: S[Hyp]S[Hyp]S[Hyp]S[Hyp]S[Hyp]S[Hyp]S[Hyp]S[Hyp]S[Hyp]S[Hyp]
modifications: also: O-glycosylated, sites not given here
Regarding B1, in test [2], the percent inhibition stood at 5%.
